Test results taken from the RNAGym collection of RNA variant scans (doi:10.1101/gr.219683.116).

B1: mRNA-splicing (parent)
chain: AGUUGCUGCUGGGAGCUCCAGCACAGUGAAAUGGACAGAAGGGCAGAGCAA

Variants of: B1
Assay: exon inclusion enrichment index; higher = more inclusion; WT1 exon 5 minigene, HEK293

Variant	exon inclusion enrichment index
G5A U7C G8C C9U U10C	1.27
G5A U7C G8A U10C G46U A47G	1.85
G5A U7C G8A U10C G46U A47C	2.94
G5A U7C G8A U10C G46U A47U	2.48
G5C C6A U7C G8A	0.613
G5A U7C G8C C9G U10C	1.58
G5A U7C G8A U10C G38U A39C	1.83
G5A U7C G8A U10C G38U A39G	1.15
G5A U7C G8A U10C G38U A39U	0.126
G5A U7C G8A U10C U27G G28A	2.37
G5A U7C G8A U10C U27G G28U	0.0167
G5A U7C G8A U10C U27G G28C	1.17
G5C C6A U7C C9G U10A	1.72
G5A U7C G8U C9G U10C	1.91
G5C C6A G8C C9U U10C	2.4
G5A U7C G8A U10G G11A	2.46
G5A U7C G8A U10G G11C	2.55
G5A U7C G8A U10G G11U	2.44
G5A U7C G8A U10G	1.28
G5C C6A U7A G8U U10A	0.0878
G5A U10C	2.01

Variant	exon inclusion enrichment index
G5A U7C G8A U10C G43C C44G	4.39
G5A U7C G8A U10C G43C C44U	1.59
G5A U7C G8A U10C G43C C44A	3.61
G5C C6A G8C U10A	0.77
G5A U7C G8A U10C U17C	1.62
G5A U7C G8A U10C U17A	1.89
G5A U7C G8A U10C U17G	1.81
G5C C6A U7A G8U C9A	0.415
G5A U7C G8A U10C G34C A35C	0.149
G5A U7C G8A U10C G34C A35G	1.69
G5A U7C G8A U10C G34C A35U	0.506
G5C C6A U7C C9A U10C	2.61
G5C C6A U7C C9A U10A	0.851
G5A U7C G8A U10C U32A	1.87
G5A U7C G8A U10C U32G	0.244
G5A U7C G8A U10C U32C	3.88
G5A U7C G8U C9A	0.658
G5A U7C G8U C9A U10C	1.23
G5A U7C G8A U10C G33U G34C	0.815
G5A U7C G8A U10C G33U G34A	0.441
G5A U7C G8A U10C G33U G34U	0.351

Variant	exon inclusion enrichment index
G5A U7C G8A U10C U27C G28C	2.7
G5A U7C G8A U10C U27C G28U	1.74
G5A U7C G8A U10C U27C G28A	2.31
G5A U7C G8A U10C G46C	2.03
G5A U7C G8A U10C G46A	2.32
G5A U7C G8A U10C G46U	1.6
G5A U7C G8C C9A U10C	1.56
G5A U7C G8A U10C G34U A35G	0.753
G5A U7C G8A U10C G34U A35U	0.441
G5A U7C G8A U10C G34U A35C	0.726
G5C C6A U7A U10C	3.35
G5C C6A U7A U10A	0.407
G5C C6A	0.0337
G5A U7G G8A U10C	2.7
G5A U7C U10C	4.21
G5C C6A U7A G8C C9U U10C	2.04
G5C C6A U7A G8C U10A	0.514
G5A U7C G8A U10C U17G C18U	1.66
G5A U7C G8A U10C U17G C18G	1.96
G5A U7C G8A U10C U17G C18A	2.15
G5A U7C G8A U10C U32G G33C	2.16

Variant	exon inclusion enrichment index
G5A U7C G8A U10C U32G G33U	0.923
G5A U7C G8A U10C U32G G33A	0.707
G5A U7G G8U U10C	2.36
G5A U7C G8A U10C G38A A39U	0.204
G5A U7C G8A U10C G38A A39C	1.95
G5A U7C G8A U10C G38A A39G	2.26
G5A U7C G8A U10C G48A	2.99
G5A U7C G8A U10C G48U	2.83
G5A U7C G8A U10C G48C	2.4
G5A U7C G8A U10C G43U C44U	0.735
G5A U7C G8A U10C G43U C44G	0.5
G5A U7C G8A U10C G43U C44A	0.058
G5A U7C G8A U10C G34A A35G	1.09
G5A U7C G8A U10C G34A A35C	1.83
G5A U7C G8A U10C G34A A35U	0.813
G5A U7C G8A U10C G41A G42U	1.8
G5A U7C G8A U10C G41A G42A	1.99
G5A U7C G8A U10C G41A G42C	2.53
G5A U7C G8A U10C G42C G43A	3
G5A U7C G8A U10C G42C G43U	3.18
